Values quoted from earlier work, collected in article PMC11720126.
Where two headings read alike, the source gives them in different places.

What was measured:
[1] = target: Calmodulin (Homo sapiens) (UniProt P0DP23)
[2] = target: Calmodulin (Homo sapiens) (UniProt P0DP23); remark: listed apart in the source
[3] = target: Calmodulin (Homo sapiens) (UniProt P0DP23); remark: listed apart in the source
[4] = target: Calmodulin (Homo sapiens) (UniProt P0DP23); remark: listed apart in the source

| Substance | Kd [1] [µM] | Kd [2] [µM] | Kd [3] [µM] | Kd [4] [µM] |
| --- | --- | --- | --- | --- |
| STIM2 PBD (from UniProt Q9P246) | 0.9 | 150 |  |  |
| STIM1 PBD (from UniProt Q13586) |  |  | 55 | 0.8 |
